Data published in PMC11275212, “Eukaryotic Pif1 helicase unwinds G-quadruplex and dsDNA using a conserved wedge” (Nature Communications, 2024).

Columns and labels:
[1] = biological target: T1, ScPif1 (Saccharomyces cerevisiae Pif1, residues 236–753) (Saccharomyces cerevisiae, UniProt P07271); experiment: ATP hydrolysis assay; format: biochemical; conditions: ATPase rate only in supplement
T1 construct: helicase core domain, residues 236-753; N-terminal SUMO tag (pET28a) cleaved by Ulp protease; E. coli BL21; monomer on G4 DNA
T1 sequence (P07271 236-753): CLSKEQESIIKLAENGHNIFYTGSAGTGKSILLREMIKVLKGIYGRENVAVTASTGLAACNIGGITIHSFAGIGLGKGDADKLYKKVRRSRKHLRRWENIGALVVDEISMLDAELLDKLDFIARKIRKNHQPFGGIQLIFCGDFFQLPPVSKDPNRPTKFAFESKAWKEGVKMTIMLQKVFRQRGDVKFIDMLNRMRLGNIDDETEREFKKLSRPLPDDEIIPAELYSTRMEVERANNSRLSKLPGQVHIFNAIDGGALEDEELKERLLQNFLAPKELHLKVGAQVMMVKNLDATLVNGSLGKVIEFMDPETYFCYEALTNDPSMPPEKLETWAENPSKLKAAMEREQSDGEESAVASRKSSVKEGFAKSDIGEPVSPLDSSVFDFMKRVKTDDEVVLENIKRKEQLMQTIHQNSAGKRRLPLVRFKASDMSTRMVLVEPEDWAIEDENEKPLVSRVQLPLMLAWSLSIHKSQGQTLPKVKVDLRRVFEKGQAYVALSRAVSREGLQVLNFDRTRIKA

ScPif1 = biological target: T2, ScPif1 (Saccharomyces cerevisiae, UniProt P07271 236-753); experiment: fluorescence anisotropy; no nucleotide; Fluorescence anisotropy: 20 mM HEPES-NaOH pH 7.5, 100 mM NaCl, 10% glycerol, 20 C, 10 nM FAM-DNA, 30 min, quadratic fit; conditions: protein: recombinant, tags: N-terminal SUMO tag (Ni-NTA purified), cleaved by Ulp protease, label: 3' 6-FAM
T2 sequence: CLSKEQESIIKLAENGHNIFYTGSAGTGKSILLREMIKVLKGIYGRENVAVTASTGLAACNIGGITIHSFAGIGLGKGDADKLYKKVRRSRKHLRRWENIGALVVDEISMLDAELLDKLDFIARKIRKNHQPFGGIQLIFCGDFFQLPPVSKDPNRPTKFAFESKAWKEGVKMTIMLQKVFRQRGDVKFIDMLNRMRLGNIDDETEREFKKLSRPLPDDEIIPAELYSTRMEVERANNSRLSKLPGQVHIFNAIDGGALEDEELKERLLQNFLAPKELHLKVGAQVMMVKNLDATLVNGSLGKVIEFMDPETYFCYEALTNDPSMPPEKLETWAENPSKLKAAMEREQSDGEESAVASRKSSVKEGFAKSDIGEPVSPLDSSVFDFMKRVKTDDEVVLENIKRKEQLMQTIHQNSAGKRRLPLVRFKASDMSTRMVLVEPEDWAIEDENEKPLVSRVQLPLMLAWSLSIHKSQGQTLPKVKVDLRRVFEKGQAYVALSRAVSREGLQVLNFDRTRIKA

ScPif1 R324E = biological target: T3, ScPif1 R324E (Saccharomyces cerevisiae, UniProt P07271 236-753, R324E); experiment: as above; conditions: protein: recombinant; tags: N-terminal SUMO tag, cleaved; label: 3' 6-FAM; parallel intramolecular G4
T3 sequence: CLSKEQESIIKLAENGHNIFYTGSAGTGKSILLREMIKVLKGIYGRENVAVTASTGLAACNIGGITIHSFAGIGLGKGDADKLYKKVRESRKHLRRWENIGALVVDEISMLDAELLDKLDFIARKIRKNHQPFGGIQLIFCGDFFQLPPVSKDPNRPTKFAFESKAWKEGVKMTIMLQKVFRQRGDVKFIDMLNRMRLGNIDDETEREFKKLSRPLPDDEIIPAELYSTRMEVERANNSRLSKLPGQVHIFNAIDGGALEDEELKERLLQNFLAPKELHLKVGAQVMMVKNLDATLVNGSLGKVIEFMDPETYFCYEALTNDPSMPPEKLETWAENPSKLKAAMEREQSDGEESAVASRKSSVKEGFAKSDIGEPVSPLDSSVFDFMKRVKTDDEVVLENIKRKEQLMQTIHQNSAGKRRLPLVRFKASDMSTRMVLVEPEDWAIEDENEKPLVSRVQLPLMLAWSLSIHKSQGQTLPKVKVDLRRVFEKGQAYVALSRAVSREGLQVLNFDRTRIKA

ScPif1 R324A = biological target: T4, ScPif1 R324A (Saccharomyces cerevisiae, UniProt P07271 236-753, R324A); experiment: as above; conditions: protein: recombinant; tags: N-terminal SUMO tag, cleaved; label: 3' 6-FAM; parallel intramolecular G4
T4 sequence: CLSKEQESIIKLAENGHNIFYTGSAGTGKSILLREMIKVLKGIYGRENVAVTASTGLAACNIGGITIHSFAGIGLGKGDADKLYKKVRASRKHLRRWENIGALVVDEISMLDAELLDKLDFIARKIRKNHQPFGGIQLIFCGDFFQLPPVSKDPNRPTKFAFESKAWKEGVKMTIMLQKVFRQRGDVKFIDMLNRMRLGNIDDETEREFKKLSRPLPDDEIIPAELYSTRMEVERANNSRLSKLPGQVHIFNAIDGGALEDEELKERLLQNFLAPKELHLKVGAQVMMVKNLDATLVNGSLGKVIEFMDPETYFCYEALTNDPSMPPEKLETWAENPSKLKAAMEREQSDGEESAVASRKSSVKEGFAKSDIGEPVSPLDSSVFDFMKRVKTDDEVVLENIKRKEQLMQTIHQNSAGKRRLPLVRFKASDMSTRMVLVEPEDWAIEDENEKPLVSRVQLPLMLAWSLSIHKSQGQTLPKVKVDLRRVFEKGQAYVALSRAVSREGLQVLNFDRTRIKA

ScPif1 R324Y = biological target: T5, ScPif1 R324Y (Saccharomyces cerevisiae, UniProt P07271 236-753, R324Y); experiment: as above; conditions: protein: recombinant; tags: N-terminal SUMO tag, cleaved; label: 3' 6-FAM; parallel intramolecular G4
T5 sequence: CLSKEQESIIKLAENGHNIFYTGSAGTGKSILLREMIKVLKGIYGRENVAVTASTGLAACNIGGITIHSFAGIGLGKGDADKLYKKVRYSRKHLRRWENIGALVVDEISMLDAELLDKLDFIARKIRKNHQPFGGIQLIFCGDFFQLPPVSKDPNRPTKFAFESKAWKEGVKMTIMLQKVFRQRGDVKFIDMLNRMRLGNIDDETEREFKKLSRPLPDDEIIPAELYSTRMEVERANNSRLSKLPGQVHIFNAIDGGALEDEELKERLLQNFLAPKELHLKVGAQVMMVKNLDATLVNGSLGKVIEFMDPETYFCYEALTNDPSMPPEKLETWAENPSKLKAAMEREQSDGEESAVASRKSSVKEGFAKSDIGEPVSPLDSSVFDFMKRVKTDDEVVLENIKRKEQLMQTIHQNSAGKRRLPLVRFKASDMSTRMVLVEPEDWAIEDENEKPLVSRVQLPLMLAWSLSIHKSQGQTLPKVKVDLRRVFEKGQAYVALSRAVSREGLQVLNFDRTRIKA

ScPif1 R324W = biological target: T6, ScPif1 R324W (Saccharomyces cerevisiae, UniProt P07271 236-753, R324W); experiment: as above; conditions: protein: recombinant; tags: N-terminal SUMO tag, cleaved; label: 3' 6-FAM; parallel intramolecular G4
T6 sequence: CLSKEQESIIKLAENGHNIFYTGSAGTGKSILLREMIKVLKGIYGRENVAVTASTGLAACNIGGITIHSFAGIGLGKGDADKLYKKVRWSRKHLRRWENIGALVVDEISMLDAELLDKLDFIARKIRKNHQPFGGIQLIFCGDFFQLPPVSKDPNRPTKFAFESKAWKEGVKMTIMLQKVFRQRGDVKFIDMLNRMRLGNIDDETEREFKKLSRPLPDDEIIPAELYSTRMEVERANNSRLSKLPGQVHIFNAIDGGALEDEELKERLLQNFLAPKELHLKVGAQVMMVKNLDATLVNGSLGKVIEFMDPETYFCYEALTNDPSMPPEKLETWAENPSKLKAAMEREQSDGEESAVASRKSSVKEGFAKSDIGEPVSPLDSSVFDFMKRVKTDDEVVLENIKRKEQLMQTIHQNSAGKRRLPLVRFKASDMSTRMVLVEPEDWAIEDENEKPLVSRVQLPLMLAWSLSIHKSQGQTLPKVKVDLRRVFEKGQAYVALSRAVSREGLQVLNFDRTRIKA

Molecule: Nc1ncnc2c1ncn2[C@@H]1O[C@H](COP(=O)(O)OP(=O)(O)OP(=O)(O)O)[C@@H](O)[C@H]1O [ATP]
- ATP hydrolysis assay [1]: they hydrolyze ATP at a similar rate to WT ScPif1

Molecule: TTTTTTTTGGTGGTGGTTGTTGTGGTGGTGGTGGT (structured_DNA) [T7-AT11-FAM]
- Kd (ScPif1; parallel intramolecular G4 with 5' ssDNA tail): 7.23 nM

Molecule: TTTTTTT (ssDNA) [T7-FAM]
- Kd (ScPif1; single strand): 12.8 nM

Molecule: TGGTGGTGGTTGTTGTGGTGGTGGTGGT (structured_DNA) [AT11-FAM]
- Kd (ScPif1 R324E): 25.6 nM
- Kd (ScPif1 R324A): 11.8 nM
- Kd (ScPif1 R324Y): 10.9 nM
- Kd (ScPif1 R324W): 9.57 nM
- Kd (ScPif1; parallel intramolecular G4): 11.2 nM
